The values that follow are results of earlier work, collected in article PMC8745080.

As a reminder, the pKa is the negative logarithm of the acid dissociation constant.

For data set [1], the target named is T1, His98 (UniProt position 99, NFPNYHQTSEI). Nature of the data set: NMR. Conditions: apo (ligand-free), folded.
Data set [2] has as its target T1, His98. Nature of the data set: not stated (NMR inferred from the apo data of the same reference). Conditions: holo (bile-salt-bound; identity of the bound bile salts not given), folded.
Data set [3] has as its target His98 (UniProt position 99, SEKFSHEQEVK). Nature of the data set: not stated (the review mentions pH-dependent NMR measurements on cL-BABP in the same section). Conditions: apo (ligand-free), folded.

Regarding “Human ileal bile acid-binding protein (hI-BABP; gastrotropin, FABP6), common isoform (Homo sapiens)”, the pKa in the data set with His98 [1] was 6.6; with His98 [2], 7.0.

With “Chicken liver bile acid-binding protein (cL-BABP; liver basic fatty acid-binding protein) (Gallus gallus)”, the pKa in the data set with His98 [3] is given as 4.7.
